Results on four molecules are retold here after US20240076389A1 (NATIONAL RESEARCH COUNCIL OF CANADA, published 2024).

Broadly, the EC50 is the concentration that produces a half-maximal response. Usually koff stands for the first-order rate constant of dissociation. A word on the kon: it is a measure of how fast the partners come together.

The target of assay [1] is T1, mouse AXL extracellular domain (Sino cat. 51026-M08H) (mouse, UniProt Q00993 19-445).
T1 construct: extracellular domain; Bought protein; also called mouse AXL ECD
T1 sequence (looked up): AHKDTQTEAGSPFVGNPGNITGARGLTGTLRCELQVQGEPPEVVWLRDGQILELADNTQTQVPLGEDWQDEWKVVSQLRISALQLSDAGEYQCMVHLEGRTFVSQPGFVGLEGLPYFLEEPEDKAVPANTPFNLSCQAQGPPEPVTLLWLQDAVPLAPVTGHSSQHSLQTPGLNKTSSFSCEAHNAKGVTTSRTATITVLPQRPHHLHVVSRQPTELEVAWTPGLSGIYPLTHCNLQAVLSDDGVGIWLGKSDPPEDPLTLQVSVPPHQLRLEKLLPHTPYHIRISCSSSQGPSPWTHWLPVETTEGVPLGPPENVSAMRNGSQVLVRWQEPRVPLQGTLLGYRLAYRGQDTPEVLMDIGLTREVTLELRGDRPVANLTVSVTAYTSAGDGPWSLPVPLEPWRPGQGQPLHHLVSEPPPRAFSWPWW
As to the kind of experiment: ELISA on coated mouse AXL ECD (100 ng/well). The method, then:
(§1) ELISA. ELISAs against human, cyno and mouse AXL ECDs were conducted by immobilizing 100 ng of each protein in wells of Nunc MaxiSorp microplates overnight. Human AXL (aa 1-451) and cyno AXL (aa 1-449) were produced recombinantly as described in Example 10. Mouse AXL was purchased from Sino (cat. 51026-M08H). The next day, plates were blocked with 5% (w/v) dried milk in PBS. Murine mAbs (either hybridoma- or recombinantly-produced) or VHH-Fcs were diluted in PBS containing 1% BSA and 0.1% Tween-20 and added to wells for 2 hours at room temperature. Wells were washed 5× with PBS containing 0.1% Tween-20, then HRP-labeled protein A (diluted 1:1000 in PBS containing 1% BSA and 0.1% Tween™-20) was added to wells for 1 hour at room temperature. Wells were washed again 5× with PBS/0.1% Tween-20 and developed using TMB substrate. Absorbance was measured at 450 nm. As a positive control for mouse AXL binding, a commercial anti-mouse AXL mAb (clone 175128, R&D Systems MAB8541, rat IgG2A) was used and detected with donkey […] secondary antibody.

Assay [2] concerns the target T2, recombinant human AXL extracellular domain, C-terminally His8-tagged (rhAXL-ECD) (human, UniProt P30530 26-451).
T2 construct: Made in CHO cells; also called (rh)AXL-ECD His8; human AXL ECD
T2 sequence: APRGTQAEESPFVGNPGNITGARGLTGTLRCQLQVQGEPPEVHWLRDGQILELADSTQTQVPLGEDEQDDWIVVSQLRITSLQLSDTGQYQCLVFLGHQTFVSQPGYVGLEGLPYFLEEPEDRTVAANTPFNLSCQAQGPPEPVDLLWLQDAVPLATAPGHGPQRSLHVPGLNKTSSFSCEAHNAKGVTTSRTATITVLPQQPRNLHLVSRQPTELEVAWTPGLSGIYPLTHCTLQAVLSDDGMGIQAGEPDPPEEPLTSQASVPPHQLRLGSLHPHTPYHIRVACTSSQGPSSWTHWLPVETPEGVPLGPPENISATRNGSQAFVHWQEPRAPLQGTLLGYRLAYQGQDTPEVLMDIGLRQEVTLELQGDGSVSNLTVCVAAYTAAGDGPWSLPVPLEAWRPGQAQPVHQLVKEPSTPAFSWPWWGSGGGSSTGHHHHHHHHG
As to the kind of experiment: ELISA on coated AXL ECD (100 ng/well), HRP-protein A. The method, then:
as §1

Assay [3] addresses T2, recombinant human AXL extracellular …. As to the kind of experiment: SPR Biacore T200, mAb captured on anti-Fc, AXL ECD flowed, multi-cycle kinetics. The method, then:
(§2) Surface plasmon resonance. For murine mAbs, binding to human and cynomolgus AXL ECD was assessed using a Biacore T200 instrument. Briefly, either anti-mouse or anti-human Fc antibody was immobilized on a research-grade CM5 series S sensor chip using amine coupling in acetate buffer. Murine or recombinant chimeric murine-human mAbs (mouse VH/VL; human constant regions) were captured, then recombinant human or cyno AXL ECD was flowed over the surface at different concentration ranges (0.1-500 nM) depending on the antibody. The running buffer was PBS/Tween-20 and the flow rate 100 uL/min. All binding studies were performed at 25° C. Surfaces were regenerated using 10 mM glycine, pH 1.5.

The target in assay [4] is T3, recombinant cynomolgus AXL extracellular domain (cynomolgus).
T3 construct: range 1-449; also called Cyno AXL; cyno AXL ECD
The description is as above. The method, then: as §2

The target of assay [5] is T1, mouse AXL extracellular domain (Sino …). Briefly: ELISA on coated mouse AXL ECD (100 ng/well), VHH-Fc. The method, then:
as §1

Assay [6] concerns the target T4, human AXL expressed on the cell surface of tumor cell lines (human, UniProt P30530 26-894).
T4 construct: whole, on cells; also called cell surface-expressed AXL; cell-based AXL
T4 sequence (looked up): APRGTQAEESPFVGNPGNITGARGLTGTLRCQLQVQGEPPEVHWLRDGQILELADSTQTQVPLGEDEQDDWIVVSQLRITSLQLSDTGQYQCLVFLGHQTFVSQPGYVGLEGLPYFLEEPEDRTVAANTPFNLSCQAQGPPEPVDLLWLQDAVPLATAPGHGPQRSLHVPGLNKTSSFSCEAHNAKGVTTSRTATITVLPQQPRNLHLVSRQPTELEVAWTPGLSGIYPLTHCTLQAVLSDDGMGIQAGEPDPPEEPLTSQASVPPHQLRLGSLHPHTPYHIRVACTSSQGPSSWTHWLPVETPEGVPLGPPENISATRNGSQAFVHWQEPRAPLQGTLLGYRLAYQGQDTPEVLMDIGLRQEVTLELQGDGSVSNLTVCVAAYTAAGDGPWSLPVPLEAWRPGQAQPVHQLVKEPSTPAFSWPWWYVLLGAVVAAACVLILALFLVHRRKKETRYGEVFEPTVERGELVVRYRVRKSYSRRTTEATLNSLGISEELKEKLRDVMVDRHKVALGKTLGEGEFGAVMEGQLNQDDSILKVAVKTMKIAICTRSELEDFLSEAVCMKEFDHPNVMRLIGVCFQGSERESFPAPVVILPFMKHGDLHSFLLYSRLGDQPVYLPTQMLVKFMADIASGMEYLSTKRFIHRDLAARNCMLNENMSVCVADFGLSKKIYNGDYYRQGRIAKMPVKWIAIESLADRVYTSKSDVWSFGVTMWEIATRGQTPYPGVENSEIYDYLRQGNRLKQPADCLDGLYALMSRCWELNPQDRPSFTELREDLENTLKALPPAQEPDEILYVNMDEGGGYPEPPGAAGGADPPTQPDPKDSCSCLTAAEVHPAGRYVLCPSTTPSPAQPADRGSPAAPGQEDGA
Briefly: FACS on SKOV3 cells, apparent Kd, human Fc format. How it is done: (§3) FACS binding assay. Adherent cells were dissociated with non-enzymatic Sigma Cell Dissociation Solution (Cat. No. C5789). Cells suspensions were added to polypropylene, V-bottom 96-well plates and incubated for 2 hours on ice with primary antibodies at concentrations ranging from 100 nM to 0.001 nM or at a single dose of 100 nM (for the non-specific control). After incubation and washes, cells were incubated with fluorescently labeled secondary antibody (Alexa Fluor® 488 anti-human IgG from Jackson Cat. No 709-546-098) for 1 hour on ice, then washed. Cell viability was determined using Fixable viability dye 450 (20 min on ice). Stained cells were fixed in 1% formaldehyde at 4° C. and stored at 4° C. until acquisition which was performed the next day.
(§4) Binding of recombinant chimeric Abs to three cell lines was assessed by FACS as described above. The apparent Bmax and Kd determination is shown below in Table 14.

Assay [7] deals with T3, recombinant cynomolgus AXL …. Briefly: SPR, VHH-Fc captured, AXL ECD flowed, single-concentration kinetics (estimate). The method, then: (§5) For VH Hs and VHH-Fcs, binding to human and cynomolgus AXL ECD was assessed using either a Biacore T200 instrument or a Biacore 3000 instrument. Either human AXL ECD or anti-human Fc antibody was immobilized on a research-grade CM5 series S sensor chip (T200, rhAXL ECD) or a C1 sensor chip (3000, anti-human Fc) using amine coupling in acetate buffer. VHH-Fcs were captured on anti-human Fc surfaces. Either monomeric VHHs (for rhAXL ECD surfaces) or human and cyno AXL ECD (for VHH-Fc surfaces) were flowed over the surfaces at different concentration ranges. Running buffers were HBS-EP (3000) and HBS-EP+(T200). Flow rates were 10-40 ul/min. All binding studies were performed at 25° C. Surfaces were regenerated using 10 mM glycine, pH 1.5.

The target in assay [8] is T2, recombinant human AXL extracellular …. The description is as above. How it is done: as §5
Assay [9] addresses T4, human AXL expressed on the cell surface …. As to the kind of experiment: FACS on MDA-MB-231 luciferase cells, apparent Kd, human Fc format. The method, then:
as §3, §4

The target in assay [10] is T2, recombinant human AXL extracellular …. Briefly: ELISA on coated AXL ECD (100 ng/well), VHH-Fc, HRP-protein A. The method, then:
as §1
(An ELISA detects its analyte on a solid surface through an enzyme-linked reagent.)

In assay [11] the target is T4, human AXL expressed on the cell surface …. Briefly: FACS on NCI-H292 cells, apparent Kd, human Fc format. The method, then:
as §3, §4

B1: mIgG2 F149-4G4 (antibody, V domains shown)
VH: QIQLVQSGPELKKPGETVKISCKTSGYTFTYYGINWVKQAPGKGLEWMGWINTYLGEPTYADDFKGRFAFSLETSASTAYLQINNLRDEDMATYFCTRGTMSYSFDYWGQGTALTVSS
VL: QNVLTQSPAIMSASPGEEVTMTCRASSSVSSSYLHWYQQKSGASPKLWIYSTSKLASGVPARFSGSGSGTSYSLTISSVEAEDAATYYCHQYSGDPLTFGSGTKLEVK
notes: Printed as mIgG2 (mouse IgG2)
Regarding B1, the binding result in assay [1] was “no binding”. For the same molecule, the EC50 in [2] is 15 nM. In addition, in assay [3], the Kd worked out at 1 nM, the koff came out at 0.0012 s⁻¹ and the on-rate constant (kon) is 750000 M⁻¹ s⁻¹.

B2: mIgG2 F155-3C7 (antibody, V domains shown)
VH: QVQLQQPGTELVKPGASVKLSCKASGYIFTNFWINWVKQRPGQGLEWIGNIFPGSNSSNYNEKFKNKATLTVDKSSSTAYMHLSSLTSEDSAVYYCVRDYYGGSPDYWGQGTTLTVSS
VL: DIVMSQSPSSLAVSAGEKVTMSCKSSQSLLNSKTRKNYLAWYQQKPGQSPKLLIYWASTRESGVPARFTGSGSGTDFTLTISSVQAEDLAIYYCKHSYNLWTFGGGTKLEIR
notes: Printed as mIgG2 (mouse IgG2)
For the molecule B2, the binding result in assay [1] is “no binding”. For the same molecule, in assay [2], the EC50 was found to be 14 nM. In assay [4], the Kd was found to be 25 nM, the koff came to 0.0073 s⁻¹ and the kon amounted to 290000 M⁻¹ s⁻¹. In assay [3], the Kd was found to be 3 nM, the koff worked out at 0.0018 s⁻¹ and the kon was 560000 M⁻¹ s⁻¹.

B3: NRC-sdAb006-Fc (VHH-human IgG1 Fc fusion) (Fc fusion)
chain: QVKLEESGGGLVQAGASLRLSCVASESIFGFNTMGWYRQAPGNERELVASISNSKRTMYADSVKGRFTISRDNAKNTVNLQMNNLKPEDTAVYYCRAWGIITSATVYWGQGTQVTVSS
notes: VHH fused N-terminally to human IgG1 Fc; also called NRC-sdAb006-hIgG1; not shown: human IgG1 Fc
Consider B3, for which the binding result in [5] is “no binding”. The Kd in assay [6] is 13.4 nM; in [7] it was 26 nM; in assay [8] it was 24 nM; in assay [9] it was 0.832 nM; in assay [11] it was 2.12 nM. The koff was 0.0026 s⁻¹ in [7] and 0.0021 s⁻¹ in assay [8]. Further, the values for the on-rate constant (kon) in assay [7] and in assay [8] were 100000 M⁻¹ s⁻¹ and 89000 M⁻¹ s⁻¹, respectively. Besides, the concentration for a half-maximal effect (EC50) in assay [10] was determined as 1 nM.

B4: NRC-sdAb005-Fc (VHH-human IgG1 Fc fusion) (Fc fusion)
chain: QVKLEESGGGLAQAGGSLRLSCAASGSISSINTIGWFRQAPGKQRELVAASDSGANRNYADSVKGRFTISRDNAKNTVYLQMNNLKPEDTAIYYCRAWGTGTISTMYWGQGTQVTVSS
notes: VHH fused N-terminally to human IgG1 Fc; also called NRC-sdAb005-hIgG1; not shown: human IgG1 Fc
On to B4, for which the binding result in [5] was “no binding”. The Kd in [6] is 2.03 nM; in assay [7] it was 35 nM; in assay [8], 34 nM; in assay [9], 1.47 nM; in [11] it was 1.47 nM. The results for the off-rate constant (koff) in assay [7] and in assay [8] were 0.0046 s⁻¹ and 0.0041 s⁻¹, respectively. The on-rate (kon) was 130000 M⁻¹ s⁻¹ in assay [7] and 120000 M⁻¹ s⁻¹ in [8]. For the same molecule, the EC50 in [10] came to 1 nM.
